In article PMC6755802:

Target: IL-2 binary complex stapler scFv, recombinantly expressed (human)
Assay: SPR; biotinylated scFv immobilised on Biacore SA chip at low density; analytes flowed 60 s; complexes pre-incubated 30 min at room temperature; 25 °C; HBS-P+ with 0.2% BSA; KD from equilibrium titration, 1:1 model; in Fig. 1D all proteins at 60 μM

For “Super-2/IL-2Rβ binary complex (from UniProt P60568 21-153; P14784 27-240)”, the Kd was 0.21 µM.
